In patent US12502562B2, “Human iPSC-derived brain organoids and uses thereof” (CITY OF HOPE, priority 2020, dated 2025):

How the values were obtained:
HCMV TB40/E [1] = assay: Receptor-specific siRNA treatment of brain organoids followed by TB40/E infection; type: cell-based, Human cytomegalovirus; settings: for GFP fluorescence of siRNA-treated infected brain organoids / growth kinetics of siRNA-treated infected brain organoids: siRNA for 4 days, then GFP-labeled TB40/E, up to 20 days post infection, compared to control siRNA; for susceptibility of brain organoids to TB40/E: siRNA-mediated knockdown, summary statement
Protocol: (§1) HCMV infection of brain organoids. Brain organoids at day 45 of differentiation were seeded in 24-well plates and exposed to 5×10^5 pfu/ml of HCMV virus for 24 hours. Following infection, 1 ml medium was replaced, and each organoid was placed in a single well for the duration of the experiment. At different time points post infection, each organoid was evaluated for GFP fluorescence intensity and organoid size in diameter using the same microscopy setting during each experiment.
RNA interference. Oligonucleotides for siRNA-mediated RNA interference were synthesized by […]. For RNA interference in brain organoids, four brain organoids with similar size were seeded in ultralow 24-well plates (one organoid per well) and transfected with siRNA using siLentFect. After 96 hours incubation, each organoid was infected with TB40/E at 5×10^5 pfu/ml. Medium was changed the following day. Brain organoids were cultured for 20 days on shaker with continuous medium change every 3-4 days.

[2] = system: hiPSC-derived brain organoids; assay: MEA recording of hiPSC-derived brain organoids with neuronal blockers; type: cell-based, human; settings: uninfected brain organoids, blocker 10 μM applied immediately before recording
Protocol: (§2) Microelectrode Arrays (MEA). Brain organoids at day 45 of differentiation were partially dissociated and seeded onto 12-well transparent MEA plates at three brain organoids per well. Brain organoids were cultured in BrainPhys medium, including 1×B27, 1×N2, 20 ng/ml GDNF, 20 ng/ml BDNF, 500 μg/ml Dibutyryl-cAMP, 1× Glutamax, and 1× NEAA. MEA recordings were performed at 37° C. in a Maestro MEA system with AxIS software using a bandwidth with a filter for 10 Hz to 2.5 kHz cutoff frequencies. Spike detection was performed using an adaptive threshold set to 5.5 times of the standard deviation of the estimated noise on each electrode. For recordings, following a 5-minute resting time in the Maestro instrument, each plate was recorded for 10 minutes to calculate the spike rate per well. When a recording of 5 spikes over the length of 1 minute (5 spikes per minute) was obtained, the electrode was considered active. Individual electrode bursts were identified using an adaptive Poisson surprise algorithm, while network bursts were identified for each well using a non-adaptive algorithm requiring a minimum of 10 spikes with a maximum inter-spike interval of 100 ms. Multielectrode data analysis was performed using the Axion Biosystems NeuralMetrics Tool. Synchrony index was calculated by NeuralMetric Tool with synchrony window set as 20 ms. […]

HCMV TB40/E [3] = assay: MEA recording of neural network activity in TB40/E-infected brain organoids; type: cell-based, Human cytomegalovirus; settings: 4000 ng/ml NAb, MEA recording 2 weeks post infection
Protocol: as §2

HCMV strain TR = assay: HCMV TR infection of hiPSC-derived brain organoids in the presence of NAb; type: cell-based, Human cytomegalovirus; settings: GFP-labeled TR, IMR90 iPSC-derived organoids at day 45 of differentiation
Protocol: as §1
(§3) Brain organoid treatment with NAbs. 1B2 and 62-11 NAbs at final concentrations ranging from 3.2 ng/ml to 4000 ng/ml were incubated with 5×10^5 pfu/ml of HCMV for 1 hour at 37° C. and then transferred to brain organoid-containing wells. Normal mouse IgG was used as a control at the concentration of 2000 ng/ml. For proliferation assay, brain organoids were incubated with 10 μM BrdU for 2 hours and fixed in 4% paraformaldehyde (PFA) for 1 hour, followed by immunostaining.
(§4) Images were obtained with a Carl Zeiss LSM700 confocal microscope or Nikon Eclipse TE-2000-S microscope. Cortical layer thicknesses, brain organoid size and GFP fluorescence intensity of brain organoids were measured by Image J. For measuring the layer thickness, small rectangles were drawn to ensure two opposite sides to align with both layer marker dashed lines.

[4] = system: HCMV infection of fibroblasts; settings: cited from earlier work
HCMV TB40/E [5] = assay: Cortical layer structure of TB40/E-infected brain organoids by layer marker immunostaining; type: cell-based, Human cytomegalovirus; settings: NAb 2000 ng/ml, compared to IgG control
Protocol: as §3
Immunostaining. Cells on coverslip were fixed with 4% PFA in PBS for 15 minutes at room temperature. Brain organoids were fixed with 4% PFA for 1 hour and submerged in 30% sucrose overnight. The samples were embedded in OCT and sectioned at a thickness of 14 or 20 μm using Leica CM3050S. Cells or brain organoid sections were permeabilized and blocked with blocking solution (1×PBS containing 0.1% Triton X-100 and 5% normal donkey serum) for 1 hour. […]
as §4

[6] = system: HCMV infection of epithelial cells; settings: cited from earlier work
HCMV TB40/E [7] = assay: HCMV TB40/E infection of hiPSC-derived brain organoids in the presence of NAbs (GFP fluorescence intensity, organoid size); type: cell-based, Human cytomegalovirus; settings: for GFP fluorescence intensity of infected brain organoids / brain organoid growth kinetics (relative organoid size): GFP-labeled TB40/E, organoids at day 45 of differentiation, NAb 3.2-2000 ng/ml, up to 30 days post infection; for GFP fluorescence intensity of infected brain organoids / brain organoid growth kinetics (relative organoid size) / brain organoid size: compared to IgG control; for brain organoid size: TB40/E, 80-2000 ng/ml antibody; for prevention of HCMV infection of human brain organoids: summary statement
Protocol: as §1, §3, §4

ITGA5-specific siRNA: siRNA specific for integrin α5 (Dharmacon), sense SEQ ID NO: 7, antisense SEQ ID NO: 8 (sense GGGAACCUCACUUACGGCU; antisense AGCCGUAAGUGAGGUUCCCUU; listed as RNA, chemistry not given here) [reference compound]
GFP fluorescence of siRNA-treated infected brain organoids (HCMV TB40/E [1]): similar
growth kinetics of siRNA-treated infected brain organoids (HCMV TB40/E [1]): similar

PDGFRα-specific siRNA: siRNA specific for PDGFRα, sense SEQ ID NO: 3, antisense SEQ ID NO: 4 (sense CCACCUUCAUCAAGAGAGA; antisense UCUCUCUUGAUGAAGGUGGAA; listed as RNA, chemistry not given here)
GFP fluorescence of siRNA-treated infected brain organoids (HCMV TB40/E [1]): no or very low GFP fluorescence
growth kinetics of siRNA-treated infected brain organoids (HCMV TB40/E [1]): substantially higher growth kinetics
susceptibility of brain organoids to TB40/E (HCMV TB40/E [1]): completely abrogated

EGFR-specific siRNA: siRNA specific for EGFR, sense SEQ ID NO: 1, antisense SEQ ID NO: 2 (sense GACGGCGUCCGCAAGUGUA; antisense UACACUUGCGGACGCCGUCUU; listed as RNA, chemistry not given here)
GFP fluorescence of siRNA-treated infected brain organoids (HCMV TB40/E [1]): no or very low GFP fluorescence
growth kinetics of siRNA-treated infected brain organoids (HCMV TB40/E [1]): substantially higher growth kinetics
susceptibility of brain organoids to TB40/E (HCMV TB40/E [1]): completely abrogated

N#Cc1cc2nc([O-])c([O-])nc2cc1[N+](=O)[O-].[Na+].[Na+] [CNQX, CNQX disodium salt]
spontaneous, synchronized burst and spikes of the neuronal network (MEA) [2]: could be quenched

ITGA3-specific siRNA: siRNA specific for integrin α3, sense SEQ ID NO: 5, antisense SEQ ID NO: 6 (sense GCUACAUGAUUCAGCGCAA; antisense UUGCGCUGAAUCAUGUAGCUG; listed as RNA, chemistry not given here)
GFP fluorescence of siRNA-treated infected brain organoids (HCMV TB40/E [1]): similar
growth kinetics of siRNA-treated infected brain organoids (HCMV TB40/E [1]): similar

B1: 1B2: Mouse monoclonal anti-CMV PC neutralizing antibody that targets the UL128/130/131A subunits of the PC (antibody, V domains shown)
VH: EVQLVESGGVLVKPGGSLKLSCAASGFTFSDYYMYWVRQTPEKRLEWVATISDDGNYTNYPDSVKGRFTISRDNAKNNLYLQMSSLKSEDTAMYYCARGWLLPVFAYWGQGTLVTVSA
VL: DIVLTQSPATLSVTPGDSVSLSCRASQSIGNNLHWYQQKSHESPRLLIKYTSQSISGIPSRFSGSGSGTDFTLNINSVETEDFGVYFCQQSNRWPWTFGGGTKLEIK
neural network activity (MEA profile) (HCMV TB40/E [3]): largely prevented neural network impairment
infection of brain organoids by TR and its effect on brain organoid growth (HCMV strain TR): could be prevented
prevention of HCMV infection of fibroblasts [4]: unable to prevent
thickness of the TBR2+SVZ and the CTIP2+CP layers (HCMV TB40/E [5]): much thicker
inhibition of HCMV infection of epithelial cells [6]: exceptionally high potency
GFP fluorescence intensity of infected brain organoids (HCMV TB40/E [7]): substantially reduced GFP fluorescence intensity
brain organoid growth kinetics (relative organoid size) (HCMV TB40/E [7]): markedly increased growth kinetics in a dose-dependent manner
brain organoid size (HCMV TB40/E [7]): substantially larger
prevention of HCMV infection of human brain organoids (HCMV TB40/E [7]): can potently prevent

B2: 62-11: Mouse monoclonal gH-specific HCMV neutralizing antibody raised against the envelope PC by vaccination (antibody, V domains shown)
VH: QVQLQQPGAELVRPGASVKLSCKASGYTFTSYWMNWVKQRPGQGLEWIGMIDPSDSETHYNQMFKDKATLTVDKSSSTAYMQLSSLTSEDSAVYYCSNGYSSFAYWGQGTLVTVSV
VL: DVQMTQTTSSLSASLGDRVTISCSASQGISNYLNWYQQKPDGTVKLLIYDTSSLHSGVPSRFSGSGSGTDYSLTISNLEPEDIATYYCQQYSKLPYTFGGGTKLEIK
prevention of HCMV infection of fibroblasts [4]: can potently interfere
inhibition of HCMV infection of epithelial cells [6]: can potently interfere
GFP fluorescence intensity of infected brain organoids (HCMV TB40/E [7]): substantially reduced GFP fluorescence intensity
brain organoid growth kinetics (relative organoid size) (HCMV TB40/E [7]): markedly increased growth kinetics in a dose-dependent manner
brain organoid size (HCMV TB40/E [7]): substantially larger
prevention of HCMV infection of human brain organoids (HCMV TB40/E [7]): can potently prevent
